The values below are quoted from earlier work in publication PMC10544997.

As a reminder, the Kd is the free concentration of one partner at which half of the binding sites on the other are occupied at equilibrium, for simple one-to-one binding.

The target of this series is FcγRIIa (Homo sapiens) (UniProt P12318).
Chain of FcγRIIa (Homo sapiens) (P12318 34-317): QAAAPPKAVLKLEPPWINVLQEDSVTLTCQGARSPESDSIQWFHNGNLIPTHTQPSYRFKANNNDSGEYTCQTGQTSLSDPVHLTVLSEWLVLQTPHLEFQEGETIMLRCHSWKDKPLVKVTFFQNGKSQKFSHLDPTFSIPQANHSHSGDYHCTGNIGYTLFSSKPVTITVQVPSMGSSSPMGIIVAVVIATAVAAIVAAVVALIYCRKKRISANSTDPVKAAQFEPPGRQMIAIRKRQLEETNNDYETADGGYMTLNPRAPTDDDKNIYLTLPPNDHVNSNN

As to IgG1 Fc (from UniProt P01857), the Kd is 1000 nM.
